In patent publication US20030044400A1, “Composition and method for treating cells” (priority 2001, published 2003):

Key:
PC-3 induced tumor [1] = test: Prostate tumor (PC-3) in immunodeficient mice; type: in vivo, immunodeficient mice (TACN: NH (S)—NuFDF homozygous males); conditions: for reduction of prostate tumor: immunodeficient mice, 5 mg/30 g body weight, 5 days consecutive ip injection, vs control
Protocol: Another set of experiments were designed using immunodeficient mice (TACN: NH (S)—NuFDF homozygous males 3-4 wks old). The 2×10^7 PC-3 cells were implanted and allowed to grow for 6 wks. The mice in the control group received 0.5 ml saline intraperitoneally for 5 days and in the treated group received 0.5 ml Fetuin for 5 days.
The mice divided into 5 each group in this study were TACN:NH (S)—NuFDF homozygous males 3-4 weeks old and weighed an average of 22 g at the start of the experiment and 30 g at the termination of the experiment six weeks later. The animals were induced to prostate tumor formation by inoculating 2×10^7 PC-3 cells in 0.1 ml PBS suspension on the upper half of the dorsal thorax of the mouse. The tumor will be allowed to grow for 6 weeks. The mice in the control group will receive 0.1 ml saline intraperitoneally for 5 days and the mice in the treated group will receive 0.02 ml, 0.1 ml and 0.2 ml of Fetuin 10 mg/ml per day for 5 days. Treatment will start the day after tumor inoculation. Tumor will be weighed at the end of the experiment when the mice will be sacrificed for subsequent histopathology. Animals will be monitored daily for signs of tumor and/or any toxic effects from the test material.

normal cell lines = test: Apoptosis in normal cell lines; type: cell-based; conditions: in 2-3 days
[2] = Hematological and Pathological Assessment of Fetuin in Balb/C Mice; type: in vivo
Protocol: The Balb/C mice weighing 20-30 g at six to eight weeks of age were divided in six animals per group, 3 female and 3 male, in this study. Fetuin is administered IV or IP at dose of 5 mg, 0.5 mg, 0.05 mg and 0.005 mg per 20 gm mouse for 7 days. Because the nutritional supplement has potential beneficial effects on the immune response, potential toxicity is determined by clinical hematological and classical pathological parameters.
Pre-study assessment of highest tolerated dose administration by IV or IP injection. The end-point is the highest non-lethal dose administered by each route. Animals are screened daily for signs of lethality and the total time of observation is seven days.
Clinical and histological assessment of highest tolerated and lessor doses of Fetuin. Seven days prior to the beginning of phase II each animal is bled to determine its background values for hematological and clinical chemistry parameters. The highest tolerated dose and the next lowest, as well as the vehicle are injected in a single injection by the best-tolerated route. After 24 hours the animals are sacrificed. Gross and microscopic pathologic examination are performed on the organs. Hematological, clinical chemistries and clinical pathology tests are performed: (1) Blood Collection and Analysis: Blood samples are collected from each mouse, one at the start of the experiment prior to receiving their injection of Fetuin and the second collected at the time of euthanasia. The samples are collected via retro-orbital sinus bleed, or tail bleed, under anesthesia. (2) Hematology: Approximately 125 ul of whole blood is collected in an EDTA tube at the specified time. The following hematological parameters are determined: White blood cell count (WBC), Red blood cell count (RBC), Hemoglobin (HGB), Hematocrit (HCT), Mean Corpuscular Volume (MCV), Mean Corpuscular Hemoglobin (MCH), Mean Corpuscular Hemoglobin […] (MCHC), Platelet count (PLT), WBC differential count. Whole blood samples for hematology are disposed of one week after analysis. (3) Clinical Chemistry: Approximately 125 ul of whole blood is collected in a tube containing no additives for serum at the specified times. Tests determine the following clinical chemistry parameters: Alanine aminotransferase (ALT) and Aspartate aminotransferase (AST). (4) Collection of Tissue: The following tissues are collected into 10% neutral buffered formalin (NBF): kidney, liver, lung, thymus, reproductive organ, heart, spleen and lymph nodes. Any abnormalities or gross pathology found at necroscopy are recorded for each animal. (5) Histopathology: Histology is done on the tissue samples submitted for each animal. The tissues will be paraffin-embedded, sectioned and stained with hematoxylin and eosin (H&E). A pathology reads the slides for apparent abnormalities.
Clinical and histological assessment of highest tolerated dose of Fetuin administered daily over 14 days. The highest tolerated dose as determined in Phase II and the vehicle is injected daily for fourteen consecutive days by the best-tolerated route. After 24 hours, one-half of the animals are sacrificed. The remainder are sacrificed after 14 days. Gross microscopic pathologic examination are performed on the organs recovered from all animals. (1) Blood collection and analysis: Blood sample is collected from each mouse, one at the start of the experiment prior to receiving their injection of Fetuin and the second collected at the time of euthanasia. The samples are collected via retro-orbital sinus bleed or tail bleed under anesthesia. (2) Hematology: Approximately 125 ul of whole blood is collected in an EDTA tube at the specified time. The following hematology parameters is determined: White blood cell count (WBC), Red blood cell count (RBC), Hemoglobin (HGB), Hematocrit (HCT), Mean Corpuscular Volume (MCV), Mean Corpuscular Hemoglobin (MCH), Mean Corpuscular Hemoglobin […] (MCHC), Platelet count (PLC), WBC differential count. […]

PC-3 induced tumor [3] = test: Prostate Tumor Inhibition Model (PC-3, nude mice); type: in vivo, nude adult male mice; conditions: for Avg. Weight Tumor / Avg. Weight mice / Total Weight Tumor: nude mice with PC-3 tumors
Protocol: The 30-35 g nude adult male mice were used for this study. The inoculum of PC-3 cells applied to induce tumor formation was adjusted with RPMI-1640 to 2×10^7 cells/0.1 ml. To induce tumor formation, a 0.1 ml suspension of PC-3 was injected subcutaneously at a site between the ears using a 26 gauge, ⅜″ needle. The tumors were allowed to grow for 38 days. The mice in the control group received 0.1 ml saline intraperitoneally for 10 days. Mice in the treated group received 10 consecutive 0.1 ml intraperitoneal injections of Fetuin adjusted by dilution in sterile deionized water to deliver dose concentration of 0.1 ml, 0.01 ml and 0.001 ml at 10 mg/ml. Tumors were weighed individually when the mice were sacrificed for subsequent histopathology study.

[4] = immunodeficient mice with PC-3, 0.5 ml Fetuin ip for 5 days, 9 mice
[5] = Fetuin 0.001 ml × 10 ip (10 mg/ml)
[6] = Fetuin 0.01 ml × 10 ip (10 mg/ml)
[7] = Fetuin 0.1 ml × 10 ip (10 mg/ml)

Substance: Fetuin: Fetal bovine fetuin purified from fetal bovine serum by modified Spiro method; 60 Kd glycoprotein, homologue of alpha 2-HS glycoprotein
- Ave. Mouse Weight (gm) (PC-3 induced tumor [1]; [4]): 30.6 gm
- Ave. Tumor Weight (gm) (PC-3 induced tumor [1]; [4]): 0 gm
- Tumor Incidence (%) (PC-3 induced tumor [1]; [4]): 0%
- reduction of prostate tumor (PC-3 induced tumor [1]): up to 100%
- reduction of prostate tumor (PC-3 induced tumor [1]; listed as Fetal fetuin): 100%
- apoptosis in normal cell lines (normal cell lines): not the normal cell lines
- Blood glucose levels ([2]; Balb/C mice, 0.005 mg per animal): 13 mg/dL
- Blood glucose levels ([2]; Balb/C mice, 0.05 mg Fetuin): 27 mg/dL
- Blood glucose levels ([2]; Balb/C mice, 0.5 mg Fetuin): 25 mg/dL
- Blood glucose levels ([2]; Balb/C mice, 5 mg Fetuin per animal): 41.6 mg/dL
- cholesterol levels elevated compared to the lower doses ([2]; Balb/C mice, 5 mg per mouse, P<0.05): 14%
- survival and clinical signs ([2]; Balb/C mice, 5, 0.5, 0.05 and 0.005 mg Fetuin via IP route, 7 days): survived for 7 days without any signs of distress
- White Blood Cell (WBC) levels ([2]; Balb/C mice, 24 hrs after injection of various doses, p=0.126): within the normal limits
- AST (Aspartate Aminotransferase) level ([2]; Balb/C mice, P=0.306): within the normal limits
- ALT (Alanine Aminotransferase) level ([2]; Balb/C mice, P=0.444): within the normal limits
- microscopic structure of tissues ([2]; Balb/C mice, all dosage groups): normal in architecture
- body weight change ([2]; Balb/C mice, control vs Fetuin treated group): no significant body weight change
- Blood Urinary Nitrogen (BUN) levels ([2]; Balb/C mice, highest and lowest dose groups, unrelated to dose): elevated
- overall toxicity ([2]; Balb/c mouse): very low toxicity
- red blood cell count, white blood cell count and platelet count ([2]; healthy animals, 5-fold increased dose): did not affect
- safety by hematological, clinical chemistry and histopathological analysis ([2]; healthy mice, 2.5-5 fold higher dose than effective in cancer-bearing mice): no obvious adverse effect was observed
- prostate tumor size compared to the control group (PC-3 induced tumor [3]; highest doses): 40%
- Avg. Weight Tumor (PC-3 induced tumor [3]; [5]): 2.03 g
- Avg. Weight mice (PC-3 induced tumor [3]; [5]): 33.9 g
- Total Weight Tumor (PC-3 induced tumor [3]; [5]): 6.1 g
- Avg. Weight Tumor (PC-3 induced tumor [3]; [6]): 2.08 g
- Avg. Weight mice (PC-3 induced tumor [3]; [6]): 35.3 g
- Total Weight Tumor (PC-3 induced tumor [3]; [6]): 6.24 g
- Avg. Weight Tumor (PC-3 induced tumor [3]; [7]): 1.01 g
- Avg. Weight mice (PC-3 induced tumor [3]; [7]): 32.0 g
- Total Weight Tumor (PC-3 induced tumor [3]; [7]): 3.04 g
